Data on 2 molecules can be found in PMC4506539, “Crystallographic structure of a small molecule SIRT1 activator-enzyme complex” (Nature Communications, 2015).

Experiment [1] concerns the target T1, full-length human SIRT1 (human, UniProt Q96EB6 1-747).
T1 construct: human SIRT1, full length, 747 amino acids; also called hSIRT1; wild-type hSIRT1
T1 sequence (looked up): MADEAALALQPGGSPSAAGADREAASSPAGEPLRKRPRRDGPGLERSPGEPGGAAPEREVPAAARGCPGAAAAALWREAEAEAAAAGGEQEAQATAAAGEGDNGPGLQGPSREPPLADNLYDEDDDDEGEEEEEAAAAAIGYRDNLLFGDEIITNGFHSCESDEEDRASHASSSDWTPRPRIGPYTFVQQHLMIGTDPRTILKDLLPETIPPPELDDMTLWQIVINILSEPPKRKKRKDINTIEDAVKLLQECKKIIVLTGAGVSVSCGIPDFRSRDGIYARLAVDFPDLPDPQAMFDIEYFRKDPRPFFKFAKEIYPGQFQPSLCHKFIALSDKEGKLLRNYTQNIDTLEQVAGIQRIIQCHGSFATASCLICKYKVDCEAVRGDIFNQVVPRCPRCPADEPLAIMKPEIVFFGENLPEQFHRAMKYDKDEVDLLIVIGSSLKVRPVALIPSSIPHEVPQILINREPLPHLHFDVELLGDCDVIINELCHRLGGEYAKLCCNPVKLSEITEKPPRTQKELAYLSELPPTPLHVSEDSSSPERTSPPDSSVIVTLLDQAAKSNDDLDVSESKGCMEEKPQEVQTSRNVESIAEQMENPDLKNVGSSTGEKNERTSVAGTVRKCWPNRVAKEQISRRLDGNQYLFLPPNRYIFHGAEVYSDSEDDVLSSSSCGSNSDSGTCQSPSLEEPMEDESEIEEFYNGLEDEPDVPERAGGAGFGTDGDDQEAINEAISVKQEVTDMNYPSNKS
The experiment in a line: HDX-MS; 0.77 mg/ml full-length SIRT1 ± 3.88 mM Ac-p53(W5) ± 192 μM STAC 1 in 1.9% DMSO, mixed 1:1 with 100 mM phosphate pH read 7.0 in D2O; 0 °C, 15-5,000 s. To be noted: both partners purified.

Experiment [2] deals with T2, hSIRT1 catalytic core, residues 229–516 (human, UniProt Q96EB6 229-516).
T2 sequence (looked up): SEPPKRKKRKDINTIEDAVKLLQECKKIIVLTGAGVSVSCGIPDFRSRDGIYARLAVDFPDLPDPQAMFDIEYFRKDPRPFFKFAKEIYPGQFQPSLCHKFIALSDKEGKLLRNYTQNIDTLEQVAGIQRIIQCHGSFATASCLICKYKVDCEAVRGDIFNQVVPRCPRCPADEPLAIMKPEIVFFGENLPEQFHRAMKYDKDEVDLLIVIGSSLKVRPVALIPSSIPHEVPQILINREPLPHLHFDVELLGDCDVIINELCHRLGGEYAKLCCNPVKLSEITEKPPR
The experiment in a line: cell-based or functional assay.

B1: Ac-p53(W5) (Ac-RHKKAcW-NH2) (peptide)
peptide: Ac-RHKK(Ac)W-NH2
notes: p53-based peptide Ac-RHKKAcW-NH2; also called Trp-5mer; p53-derived peptide substrate; source: synthetic peptide, bought: Biopeptide
B1: in experiment [1], the binding result is listed as “binds”.

B2: human C-terminal regulatory segment (CTR) peptide of SIRT1 (peptide, UniProt Q96EB6 641-665, looked up)
peptide: QYLFLPPNRYIFHGAEVYSDSEDDV
In the case of B2, the “deacetylase activity of hSIRT1cd after addition of the CTR peptide, relative to full-length hSIRT1 (∼15% without the peptide)” value in experiment [2] is 80 % of the activity of full-length hSIRT1.
